From patent US20240392020A1 (JIANGSU HENGRUI PHARMACEUTICALS, published 2024)

The binders below were run against T1, hIL-5 (human, UniProt P05113 20-134) (assay: ELISA).
T1 construct: bought
Protocol: (§1) For an antibody targeting a soluble protein, the binding activity of the antibody against the soluble protein was detected by ELISA. […] After the blocking was completed, the blocking solution was discarded; and the plate was washed 3 times with a PBST buffer (pH 7.4, PBS containing 0.1% tween-20). 100 μL of the antibody solution diluted in a gradient was added to each well, and the mixture was incubated at 37° C. for 1 h. After the incubation was completed, the plate was washed 3 times with PBST. […] The plate was washed 3 times with PBST. […] The reaction was stopped by adding 50 μL of 1 M H₂SO₄ to each well. The absorbance values at 450 nm were read on a microplate reader, the binding curves of the antibodies to an antigen were fitted with software, and the EC₅₀ values were calculated.

EC50 [nM] | Binder
4.13 | R5 (antibody) heavy: not shown light: DIQMTQSPSSLSASVGDRVTITCLASEGISSYLAWYQQKPGKAPKLLIYGANSLQTGVPSRFSGSGSATDYTLTISSLQPEDFATYYCQQSYKFPNTFGQGTKVEVKSGAPRFLTRPKAFVVSVGKDATLSCQIVGNPTPQVSWEKDQQPVAAGARFRLAQDGDLYRLTILDLALGDSGQYVCRARNAIGEAFAAVGLQVDAEA
3.24 | H3 (antibody) heavy: not shown light: DIQMTQSPSSVSASVGDRVTITCRASQDIANYLSWYQQKPGKSPKLLIYGTSNLEVGVPSRFSGSRSGTDFTLTISSLQPEDFATYYCLQDKEFPRTFGGGTKVEIKSGAPRFLTRPKAFVVSVGKDATLSCQIVGNPTPQVSWEKDQQPVAAGARFRLAQDGDLYRLTILDLALGDSGQYVCRARNAIGEAFAAVGLQVDAEA
3.28 | H4 (antibody) heavy: not shown light: DIQMTQSPSSVSASVGDRVTITCRASQDIANYLSWYQQKPGKSPKLLIYGTSNLEVGVPSRFSGSRSGTDFTLTISSLQPEDFATYYCLQDKEFPRTFGGGTKVEIKQGSPPCFLRFPRPVRVVSGAEAELKCVVLGEPPPVVVWEKGGQQLAASERLSFPADGAEHGLLLTAALPTDAGVYVCRARNAAGEAYAAAAVTVLEPP

Biological target: T1, hIL-5
Test: ELISA
Remark: another data set of the same source

Binder | EC50 [nM]
R2 (antibody) heavy: not shown light: DIQMTQSPSSLSASVGDRVTITCLASEGISSYLAWYQQKPGKAPKLLIYGANSLQTGVPSRFSGSGSATDYTLTISSLQPEDFATYYCQQSYKFPNTFGQGTKVEVKFDPVYKVKPNPPHNLSVINSEELSSILKLTWTNPSIKSVIILKYNIQYRTKDASTWSQIPPEDTASTRSSFTVQDLKPFTEYVFRIRCMKEDGKGYWSDWSEEASGIT | 18.4
R1 (antibody) heavy: not shown light: DIQMTQSPSSLSASVGDRVTITCLASEGISSYLAWYQQKPGKAPKLLIYGANSLQTGVPSRFSGSGSATDYTLTISSLQPEDFATYYCQQSYKFPNTFGQGTKVEVKGILQPDPPANITVTAVARNPRWLSVTWQDPHSWNSSFYRLRFELRYRAERSKTFTTWMVKDLQHHCVIHDAWSGLRHVVQLRAQEEFGQGEWSEWSPEAMGTPW | 24.4
R6 (antibody) heavy: not shown light: DIQMTQSPSSLSASVGDRVTITCLASEGISSYLAWYQQKPGKAPKLLIYGANSLQTGVPSRFSGSGSATDYTLTISSLQPEDFATYYCQQSYKFPNTFGQGTKVEVKQGSPPCFLRFPRPVRVVSGAEAELKCVVLGEPPPVVVWEKGGQQLAASERLSFPADGAEHGLLLTAALPTDAGVYVCRARNAAGEAYAAAAVTVLEPP | 2.02
H3 (antibody) heavy: not shown light: DIQMTQSPSSVSASVGDRVTITCRASQDIANYLSWYQQKPGKSPKLLIYGTSNLEVGVPSRFSGSRSGTDFTLTISSLQPEDFATYYCLQDKEFPRTFGGGTKVEIKSGAPRFLTRPKAFVVSVGKDATLSCQIVGNPTPQVSWEKDQQPVAAGARFRLAQDGDLYRLTILDLALGDSGQYVCRARNAIGEAFAAVGLQVDAEA | 2.75
H1 (antibody) heavy: not shown light: DIQMTQSPSSVSASVGDRVTITCRASQDIANYLSWYQQKPGKSPKLLIYGTSNLEVGVPSRFSGSRSGTDFTLTISSLQPEDFATYYCLQDKEFPRTFGGGTKVEIKGILQPDPPANITVTAVARNPRWLSVTWQDPHSWNSSFYRLRFELRYRAERSKTFTTWMVKDLQHHCVIHDAWSGLRHVVQLRAQEEFGQGEWSEWSPEAMGTPW | 19.4
H4 (antibody) heavy: not shown light: DIQMTQSPSSVSASVGDRVTITCRASQDIANYLSWYQQKPGKSPKLLIYGTSNLEVGVPSRFSGSRSGTDFTLTISSLQPEDFATYYCLQDKEFPRTFGGGTKVEIKQGSPPCFLRFPRPVRVVSGAEAELKCVVLGEPPPVVVWEKGGQQLAASERLSFPADGAEHGLLLTAALPTDAGVYVCRARNAAGEAYAAAAVTVLEPP | 2.7

The remaining lines, values ahead:

EC50 [nM] | Binder
1.58 | R3 (antibody) heavy: not shown light: DIQMTQSPSSLSASVGDRVTITCLASEGISSYLAWYQQKPGKAPKLLIYGANSLQTGVPSRFSGSGSATDYTLTISSLQPEDFATYYCQQSYKFPNTFGQGTKVEVKGIPPKIEALPSDISIDEGKVLTVACAFTGEPTPEVTWSCGGRKIHSQEQGRFHIENTDDLTTLIIMDVQKQDGGLYTLSLGNEFGSDSATVNIHIRSI
1.67 | R4 (antibody) heavy: not shown light: DIQMTQSPSSLSASVGDRVTITCLASEGISSYLAWYQQKPGKAPKLLIYGANSLQTGVPSRFSGSGSATDYTLTISSLQPEDFATYYCQQSYKFPNTFGQGTKVEVKGIPPKIEALPSDISIDEGKVLTVACAFTGEPTPEVTWSCGGRKIHSQEQGRFHIENTDDLTTLIIMDVQKQDGGLYTLSLGNEFGSDSATVNIHIRSI
24.4 | H2 (antibody) heavy: not shown light: DIQMTQSPSSVSASVGDRVTITCRASQDIANYLSWYQQKPGKSPKLLIYGTSNLEVGVPSRFSGSRSGTDFTLTISSLQPEDFATYYCLQDKEFPRTFGGGTKVEIKFDPVYKVKPNPPHNLSVINSEELSSILKLTWTNPSIKSVIILKYNIQYRTKDASTWSQIPPEDTASTRSSFTVQDLKPFTEYVFRIRCMKEDGKGYWSDWSEEASGIT
1.59 | R5 (antibody) heavy: not shown light: DIQMTQSPSSLSASVGDRVTITCLASEGISSYLAWYQQKPGKAPKLLIYGANSLQTGVPSRFSGSGSATDYTLTISSLQPEDFATYYCQQSYKFPNTFGQGTKVEVKSGAPRFLTRPKAFVVSVGKDATLSCQIVGNPTPQVSWEKDQQPVAAGARFRLAQDGDLYRLTILDLALGDSGQYVCRARNAIGEAFAAVGLQVDAEA
1.75 | R0 (antibody, human IgG1, kappa) heavy: not shown light: DIQMTQSPSSLSASVGDRVTITCLASEGISSYLAWYQQKPGKAPKLLIYGANSLQTGVPSRFSGSGSATDYTLTISSLQPEDFATYYCQQSYKFPNTFGQGTKVEVKRTVAAPSVFIFPPSDEQLKSGTASVVCLLNNFYPREAKVQWKVDNALQSGNSQESVTEQDSKDSTYSLSSTLTLSKADYEKHKVYACEVTHQGLSSPVTKSFNRGEC

Biological target: T1, hIL-5
Test: ELISA
Remark: another data set of the same source
Protocol: as §1

Binder | EC50 [nM]
R13 (antibody) heavy: not shown light: DIQMTQSPSSLSASVGDRVTITCLASEGISSYLAWYQQKPGKAPKLLIYGANSLQTGVPSRFSGSGSATDYTLTISSLQPEDFATYYCQQSYKFPNTFGQGTKVEVKSGAPRFLTRPKAFVVSVGKDATLSSQIVGNPTPQVSWEKDQQPVAAGARFRLAQDGDLYRLTILDLALGDSGQYVSRARNAIGEAFACVGLQVDAEA | 0.4
R15 (antibody) heavy: not shown light: DIQMTQSPSSLSASVGDRVTITCLASEGISSYLAWYQQKPGKAPKLLIYGANSLQTGVPSRFSGSGSATDYTLTISSLQPEDFATYYCQQSYKFPNTFGQGTKVEVKSGAPRFKTRPKAFVVSVGKDATLSSQIVGNPTPQVSWEKDQQPVAAGARFRLAQDGDLYRLHILDLALGDSGQYVSRARNAIGEAFACVGLQVDAEA | 0.3

The next lines start with the values.

EC50 [nM] | Binder
0.36 | R19 (antibody) heavy: not shown light: DIQMTQSPSSLSASVGDRVTITCLASEGISSYLAWYQQKPGKAPKLLIYGANSLQTGVPSRFSGSGSATDYTLTISSLQPEDFATYYCQQSYKFPNTFGQGTKVEVKDQPQFSGAPRFKTRPKAFVVSVGKDATLSSQIVGNPTPQVSWEKDQQPVAAGARFRLAQDGDLYRLKILDLALGDSGQYVSRARNAIGEAFACVGLQVDAEA
0.2 | R14 (antibody) heavy: not shown light: DIQMTQSPSSLSASVGDRVTITCLASEGISSYLAWYQQKPGKAPKLLIYGANSLQTGVPSRFSGSGSATDYTLTISSLQPEDFATYYCQQSYKFPNTFGQGTKVEVKSGAPRFKTRPKAFVVSVGKDATLSSQIVGNPTPQVSWEKDQQPVAAGARFRLAQDGDLYRLKILDLALGDSGQYVSRARNAIGEAFACVGLQVDAEA
0.4 | R17 (antibody) heavy: not shown light: DIQMTQSPSSLSASVGDRVTITCLASEGISSYLAWYQQKPGKAPKLLIYGANSLQTGVPSRFSGSGSATDYTLTISSLQPEDFATYYCQQSYKFPNTFGQGTKVEVKSGAPRFLTRPLAFVVSVGKDATLSSQIVGNPTPQVSWEKDQQPVAAGARFRLAQDGDLYRLHILDLALGDSGQYVSRARNAIGEAFACVGLQVDAEA
0.33 | R16 (antibody) heavy: not shown light: DIQMTQSPSSLSASVGDRVTITCLASEGISSYLAWYQQKPGKAPKLLIYGANSLQTGVPSRFSGSGSATDYTLTISSLQPEDFATYYCQQSYKFPNTFGQGTKVEVKSGAPRFLTRPLAFVVSVGKDATLSSQIVGNPTPQVSWEKDQQPVAAGARFRLAQDGDLYRLKILDLALGDSGQYVSRARNAIGEAFACVGLQVDAEA
